Experimental data reported in PMC4686814 (Nature communications, 2015).
Values joined by “and” are separate entries in the source; they are usually repeats but may differ in a detail not shown here. Identical values can stand only once.

Legend:
hVPS4B Phe160Ala (human) = hVPS4B Phe160Ala (human) (UniProt O75351)
hVPS4B Met350Ala (human) = hVPS4B Met350Ala (human) (UniProt O75351)
[1] = target: T1, hVPS4B E235Q (catalytic mutant of human VPS4B) (human), O75351; test: SEC; Superose 6; hVPS4B E235Q and mutants of it at 100 µM with 1 mM ATP and 5 mM MgCl2; conditions: remark: other sources report otherwise
T1 chain: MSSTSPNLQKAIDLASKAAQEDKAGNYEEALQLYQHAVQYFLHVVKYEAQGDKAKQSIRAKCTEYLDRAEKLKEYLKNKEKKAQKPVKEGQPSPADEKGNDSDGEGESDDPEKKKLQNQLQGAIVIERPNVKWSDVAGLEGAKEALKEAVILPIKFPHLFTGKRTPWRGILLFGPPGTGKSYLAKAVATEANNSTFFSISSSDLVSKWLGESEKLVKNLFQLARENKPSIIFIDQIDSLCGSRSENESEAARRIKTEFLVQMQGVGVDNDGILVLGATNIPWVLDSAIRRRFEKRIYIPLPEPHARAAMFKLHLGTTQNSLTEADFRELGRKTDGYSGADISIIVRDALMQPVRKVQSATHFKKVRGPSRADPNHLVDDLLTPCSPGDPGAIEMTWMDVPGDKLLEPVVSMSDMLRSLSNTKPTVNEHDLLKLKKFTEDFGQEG

[2] = target: the molecule itself; test: SEC; Superose 6; MsVps4ΔMIT at 200 µM (Fig. 1b) and at a series of concentrations up to 0.5 mM (Supplementary Fig. 2); no nucleotide
[3] = target: the molecule itself; test: SEC-SAXS; online SEC (Superose 6 10/300 GL) in 50 mM Tris pH 8.8, 50 mM NaCl; 500 µl at 220 µM injected; BM29 at the ESRF
[4] = target: the molecule itself; test: SEC; Superose 6; N-terminally His-tagged full length MsVps4 and mutants at 70 µM, a concentration that induces dodecamer formation; no nucleotide
[5] = target: the molecule itself; test: as above; remark: listed apart in the source

B1: hVPS4B Phe160Ala (enzyme)
chain: MSSTSPNLQKAIDLASKAAQEDKAGNYEEALQLYQHAVQYFLHVVKYEAQGDKAKQSIRAKCTEYLDRAEKLKEYLKNKEKKAQKPVKEGQPSPADEKGNDSDGEGESDDPEKKKLQNQLQGAIVIERPNVKWSDVAGLEGAKEALKEAVILPIKFPHLATGKRTPWRGILLFGPPGTGKSYLAKAVATEANNSTFFSISSSDLVSKWLGESEKLVKNLFQLARENKPSIIFIDEIDSLCGSRSENESEAARRIKTEFLVQMQGVGVDNDGILVLGATNIPWVLDSAIRRRFEKRIYIPLPEPHARAAMFKLHLGTTQNSLTEADFRELGRKTDGYSGADISIIVRDALMQPVRKVQSATHFKKVRGPSRADPNHLVDDLLTPCSPGDPGAIEMTWMDVPGDKLLEPVVSMSDMLRSLSNTKPTVNEHDLLKLKKFTEDFGQEG
hVPS4B Phe160Ala (human)
  ATPase activity at 37°C with ATP/Mg, percent of wild-type hVPS4B: 0%

B2: hVPS4B Met350Ala (enzyme)
chain: MSSTSPNLQKAIDLASKAAQEDKAGNYEEALQLYQHAVQYFLHVVKYEAQGDKAKQSIRAKCTEYLDRAEKLKEYLKNKEKKAQKPVKEGQPSPADEKGNDSDGEGESDDPEKKKLQNQLQGAIVIERPNVKWSDVAGLEGAKEALKEAVILPIKFPHLFTGKRTPWRGILLFGPPGTGKSYLAKAVATEANNSTFFSISSSDLVSKWLGESEKLVKNLFQLARENKPSIIFIDEIDSLCGSRSENESEAARRIKTEFLVQMQGVGVDNDGILVLGATNIPWVLDSAIRRRFEKRIYIPLPEPHARAAMFKLHLGTTQNSLTEADFRELGRKTDGYSGADISIIVRDALAQPVRKVQSATHFKKVRGPSRADPNHLVDDLLTPCSPGDPGAIEMTWMDVPGDKLLEPVVSMSDMLRSLSNTKPTVNEHDLLKLKKFTEDFGQEG
hVPS4B Met350Ala (human)
  ATPase activity at 37°C with ATP/Mg, percent of wild-type hVPS4B: 0%

B3: hVPS4B E235Q (catalytic mutant of human VPS4B), O75351 1-444 (enzyme)
chain: MSSTSPNLQKAIDLASKAAQEDKAGNYEEALQLYQHAVQYFLHVVKYEAQGDKAKQSIRAKCTEYLDRAEKLKEYLKNKEKKAQKPVKEGQPSPADEKGNDSDGEGESDDPEKKKLQNQLQGAIVIERPNVKWSDVAGLEGAKEALKEAVILPIKFPHLFTGKRTPWRGILLFGPPGTGKSYLAKAVATEANNSTFFSISSSDLVSKWLGESEKLVKNLFQLARENKPSIIFIDQIDSLCGSRSENESEAARRIKTEFLVQMQGVGVDNDGILVLGATNIPWVLDSAIRRRFEKRIYIPLPEPHARAAMFKLHLGTTQNSLTEADFRELGRKTDGYSGADISIIVRDALMQPVRKVQSATHFKKVRGPSRADPNHLVDDLLTPCSPGDPGAIEMTWMDVPGDKLLEPVVSMSDMLRSLSNTKPTVNEHDLLKLKKFTEDFGQEG
[1]
  stoichiometry N: 6

B4: MsVps4ΔMIT (residues 75 to 369) (domain or fragment, Metallosphera sedula, UniProt A4YHC5 75-369, looked up)
chain: VPEGGEETEKAEEDIVMKEKPKVTLNEIVGLEDVKEALKEAVVYPSKRPDLFPLGWPRGILLYGPPGCGKTMIAAAVANELDSEFIHVDAASIMSKWLGEAEKNVAKIFKTARELSKKENKPAIIFIDELDALLASYTSEVGGEARVRNQFLKEMDGLADKNEISKVYVIGATNKPWRLDEPFLRRFQKRIYITLPDKAHRLELLKHYSSKVKLDPNVNLEELAELTDGYTASDIRDIVQSAHMRVVKEMFEKNLQEPRAINMDDFREVLKVRKPSVNQDMLKAYAAWHEKFKAL
[2]
  stoichiometry N: 6

B5: MsVPS4 M318A, full length, His tag cleaved (enzyme, Metallosphera sedula, UniProt A4YHC5 1-369, looked up)
chain: MSAQVMLEEMARKYAIAAVRADKEGRREDAINNYKKAIEVLTQIVTLYPDMVARNAYEQMINEYKKRLETLNQMVPEGGEETEKAEEDIVMKEKPKVTLNEIVGLEDVKEALKEAVVYPSKRPDLFPLGWPRGILLYGPPGCGKTMIAAAVANELDSEFIHVDAASIMSKWLGEAEKNVAKIFKTARELSKKENKPAIIFIDELDALLASYTSEVGGEARVRNQFLKEMDGLADKNEISKVYVIGATNKPWRLDEPFLRRFQKRIYITLPDKAHRLELLKHYSSKVKLDPNVNLEELAELTDGYTASDIRDIVQSAHARVVKEMFEKNLQEPRAINMDDFREVLKVRKPSVNQDMLKAYAAWHEKFKAL
[3]
  stoichiometry N: 6

B6: MsVps4 Glu174Ala Glu176Ala, full length, N-terminally His-tagged (enzyme, Metallosphera sedula, UniProt A4YHC5 1-369, looked up)
chain: MSAQVMLEEMARKYAIAAVRADKEGRREDAINNYKKAIEVLTQIVTLYPDMVARNAYEQMINEYKKRLETLNQMVPEGGEETEKAEEDIVMKEKPKVTLNEIVGLEDVKEALKEAVVYPSKRPDLFPLGWPRGILLYGPPGCGKTMIAAAVANELDSEFIHVDAASIMSKWLGAAAKNVAKIFKTARELSKKENKPAIIFIDELDALLASYTSEVGGEARVRNQFLKEMDGLADKNEISKVYVIGATNKPWRLDEPFLRRFQKRIYITLPDKAHRLELLKHYSSKVKLDPNVNLEELAELTDGYTASDIRDIVQSAHMRVVKEMFEKNLQEPRAINMDDFREVLKVRKPSVNQDMLKAYAAWHEKFKAL
[4]
  stoichiometry N: 6 and 2
[5]
  stoichiometry N: 12

B7: MsVps4 Ser169Ala, full length, N-terminally His-tagged (enzyme, Metallosphera sedula, UniProt A4YHC5 1-369, looked up)
chain: MSAQVMLEEMARKYAIAAVRADKEGRREDAINNYKKAIEVLTQIVTLYPDMVARNAYEQMINEYKKRLETLNQMVPEGGEETEKAEEDIVMKEKPKVTLNEIVGLEDVKEALKEAVVYPSKRPDLFPLGWPRGILLYGPPGCGKTMIAAAVANELDSEFIHVDAASIMAKWLGEAEKNVAKIFKTARELSKKENKPAIIFIDELDALLASYTSEVGGEARVRNQFLKEMDGLADKNEISKVYVIGATNKPWRLDEPFLRRFQKRIYITLPDKAHRLELLKHYSSKVKLDPNVNLEELAELTDGYTASDIRDIVQSAHMRVVKEMFEKNLQEPRAINMDDFREVLKVRKPSVNQDMLKAYAAWHEKFKAL
[4]
  stoichiometry N: 6
[5]
  stoichiometry N: 12

B8: MsVps4 Arg259Ala Arg260Ala, full length, N-terminally His-tagged (enzyme, Metallosphera sedula, UniProt A4YHC5 1-369, looked up)
chain: MSAQVMLEEMARKYAIAAVRADKEGRREDAINNYKKAIEVLTQIVTLYPDMVARNAYEQMINEYKKRLETLNQMVPEGGEETEKAEEDIVMKEKPKVTLNEIVGLEDVKEALKEAVVYPSKRPDLFPLGWPRGILLYGPPGCGKTMIAAAVANELDSEFIHVDAASIMSKWLGEAEKNVAKIFKTARELSKKENKPAIIFIDELDALLASYTSEVGGEARVRNQFLKEMDGLADKNEISKVYVIGATNKPWRLDEPFLAAFQKRIYITLPDKAHRLELLKHYSSKVKLDPNVNLEELAELTDGYTASDIRDIVQSAHMRVVKEMFEKNLQEPRAINMDDFREVLKVRKPSVNQDMLKAYAAWHEKFKAL
[4]
  stoichiometry N: 2
[5]
  stoichiometry N: 6

B9: MsVps4 Ile89Glu, full length, N-terminally His-tagged (enzyme, Metallosphera sedula, UniProt A4YHC5 1-369, looked up)
chain: MSAQVMLEEMARKYAIAAVRADKEGRREDAINNYKKAIEVLTQIVTLYPDMVARNAYEQMINEYKKRLETLNQMVPEGGEETEKAEEDEVMKEKPKVTLNEIVGLEDVKEALKEAVVYPSKRPDLFPLGWPRGILLYGPPGCGKTMIAAAVANELDSEFIHVDAASIMSKWLGEAEKNVAKIFKTARELSKKENKPAIIFIDELDALLASYTSEVGGEARVRNQFLKEMDGLADKNEISKVYVIGATNKPWRLDEPFLRRFQKRIYITLPDKAHRLELLKHYSSKVKLDPNVNLEELAELTDGYTASDIRDIVQSAHMRVVKEMFEKNLQEPRAINMDDFREVLKVRKPSVNQDMLKAYAAWHEKFKAL
[4]
  stoichiometry N: 6
[5]
  stoichiometry N: 12

B10: MsVps4 Glu214Tyr, full length, N-terminally His-tagged (enzyme, Metallosphera sedula, UniProt A4YHC5 1-369, looked up)
chain: MSAQVMLEEMARKYAIAAVRADKEGRREDAINNYKKAIEVLTQIVTLYPDMVARNAYEQMINEYKKRLETLNQMVPEGGEETEKAEEDIVMKEKPKVTLNEIVGLEDVKEALKEAVVYPSKRPDLFPLGWPRGILLYGPPGCGKTMIAAAVANELDSEFIHVDAASIMSKWLGEAEKNVAKIFKTARELSKKENKPAIIFIDELDALLASYTSYVGGEARVRNQFLKEMDGLADKNEISKVYVIGATNKPWRLDEPFLRRFQKRIYITLPDKAHRLELLKHYSSKVKLDPNVNLEELAELTDGYTASDIRDIVQSAHMRVVKEMFEKNLQEPRAINMDDFREVLKVRKPSVNQDMLKAYAAWHEKFKAL
[4]
  stoichiometry N: 6 and 2
[5]
  stoichiometry N: 12

B11: MsVps4 wild type, full length, N-terminally His-tagged (enzyme, Metallosphera sedula, UniProt A4YHC5 1-369, looked up)
chain: MSAQVMLEEMARKYAIAAVRADKEGRREDAINNYKKAIEVLTQIVTLYPDMVARNAYEQMINEYKKRLETLNQMVPEGGEETEKAEEDIVMKEKPKVTLNEIVGLEDVKEALKEAVVYPSKRPDLFPLGWPRGILLYGPPGCGKTMIAAAVANELDSEFIHVDAASIMSKWLGEAEKNVAKIFKTARELSKKENKPAIIFIDELDALLASYTSEVGGEARVRNQFLKEMDGLADKNEISKVYVIGATNKPWRLDEPFLRRFQKRIYITLPDKAHRLELLKHYSSKVKLDPNVNLEELAELTDGYTASDIRDIVQSAHMRVVKEMFEKNLQEPRAINMDDFREVLKVRKPSVNQDMLKAYAAWHEKFKAL
[4]
  stoichiometry N: 6 and 2
[5]
  stoichiometry N: 12

B12: MsVps4 Met318Ala, full length, N-terminally His-tagged (enzyme, Metallosphera sedula, UniProt A4YHC5 1-369, looked up)
chain: MSAQVMLEEMARKYAIAAVRADKEGRREDAINNYKKAIEVLTQIVTLYPDMVARNAYEQMINEYKKRLETLNQMVPEGGEETEKAEEDIVMKEKPKVTLNEIVGLEDVKEALKEAVVYPSKRPDLFPLGWPRGILLYGPPGCGKTMIAAAVANELDSEFIHVDAASIMSKWLGEAEKNVAKIFKTARELSKKENKPAIIFIDELDALLASYTSEVGGEARVRNQFLKEMDGLADKNEISKVYVIGATNKPWRLDEPFLRRFQKRIYITLPDKAHRLELLKHYSSKVKLDPNVNLEELAELTDGYTASDIRDIVQSAHARVVKEMFEKNLQEPRAINMDDFREVLKVRKPSVNQDMLKAYAAWHEKFKAL
[4]
  stoichiometry N: 2
[5]
  stoichiometry N: 6
